# In the nanobody polyreactivity screen of Harvey et al. (2022):
# Assay: yeast display, Sf9 membrane polyspecificity reagent, FACS + sequencing; frameworks hold sequencing errors
# How it was run: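 Nanobodies came from a synthetic yeast display library in Saccharomyces cerevisiae BJ5465, induced with galactose for 36–48 hours and stained for 1 hour at 4 °C with 10% biotinylated, detergent-solubilized Sf9 membrane reagent. Cells were enriched on streptavidin microbeads and then FACS-sorted, with low and high (top ~1%) gates set on anti-HA fluorescence for expression and streptavidin fluorescence for reagent binding. Each polyreactivity label reflects the gate a clone came from. Genes were amplified by colony PCR, sequenced by MiSeq 2 × 250 and filtered by CDR length.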
row,Sequence,polyreactivity (PSR sort gate)
1,QVQLVESGAGIVQAGGSLRLSCAASGSTFGINAMGWYRQAPGKEREFVASISWSTGTTYYADSVKGRFTISRDNAKNTVYLQRNSLKPEDTAVYYCAADSSRFYGRPRYYYWGQGTQVTVSS,high polyreactivity
2,QVQLVESGAGLVHAGGSLRLSCAASGNTFIDYAMGWYRQAPGKERELVASITSGGGSTYYADSVKGRFTISRDNEKNTDYLQMNSLKPEDTAVFFFAAERYNSEAIFRSYDYWGQGSQVTVSS,low polyreactivity
3,QVQLVESGAGLVQAAGSLRLSCDASGYIFEWNAMGWYRQAPGKERELVASIDSDGSTYYADSVKGRFTISRDNAKNTVYLQMNSLKPEDTAVYYSAKSIDGWYWRRRRYDYWGQGTQVTVSS,low polyreactivity
4,QVQLVESGAGLVQAGASLRLSCDASAFIYVTYAMGWYRQAPGKEMELVAAITNSGGTTYYADSVKGRFTISRDNAKNTVYLQMNSLKPEDTAVYYCNKPYGGETAHREFDYWGQGTQVTVSS,low polyreactivity
5,QVQLVESGAGLVQAGGSLPLSCAASGSTFPKYAMGWYRQAPGKEREFVSAITSSGGRTFYADSVKGRFTISRDNAKNTVYLQMNSLKPEDTAVYYCAAYYYSWSGAFIYEYWGQGTQETVSS,high polyreactivity
6,QVQLVESGAGLVQAGGSLRISCAASGFTFQKNAMGWYRQSPGKERELVAAISSSGGSTYYADSVKGRFTISRDNAKNTVYLQMNSMKPDDTAVYYCNAVTLANKYNDYGYWGQGTQVTVSS,high polyreactivity
7,QVQLVESGAGLVQAGGSLRISGAASGRIFGKYAMGWYRQPPGKEREFVARISFSGGTTYYADSVKGRFTISRDNAKNTVYLQMNSLKPEDTAVYYCAARRQSGYGRQLDYWGQGTQVTVSS,high polyreactivity
8,QVQLVESGAGLVQAGGSLRLCCAASGRIFRSYAMGLYREAPGKERELVAAITWSGGSTYYADSVKGRFTISRDNAKNSVYLQMNSQKPEETAVYYCARVDTKKYSHTGYEYWGQGTQVTVSS,high polyreactivity
9,QVQLVESGAGLVQAGGSLRLSCAACGSTFRGNAMGWYRQAPGKEREFVASISRRGGRTNYADSVKGRFTISRDNAKNTVYLQMNSLKPEDTAVYYCAATTVPLGDYWGQGTQVTVSS,high polyreactivity
10,QVQLVESGAGLVQAGGSLRLSCAASGIIFSDNAMGWYRQAPGKEMELVAAIDWSGGSTYYADSVKGRFTISRDNAKNTVYLHMNSLKPEDTAVDYCAAEYRDYVPVNVTGDYWGQGTQVTVSS,low polyreactivity
11,QVQLVESGAGLVQAGGSLRLSCAASGITFASYGMGWYRQAPGKERELVAAISQRGGRTYYADSVKGRFTISRDNAKNTVYLQMNRLKPEDTAVYYCAARTYTITGRSPQYLNAYGYWGQGTQVTVSS,high polyreactivity
12,QVQLVESGAGLVQAGGSLRLSCAASGLIFSVYGLGWYRQEPGKERELVAAISSRGGSTYYADSVKGRFTISRVNANYTVYLQMNSLKPEDTAFYYCARRAYREHHRCQYYYWGQGTQLTVSS,high polyreactivity
13,QVQLVESGAGLVQAGGSLRLSCAASGRIFDIYAMGWYRQAPGKERELVAAITRRGGTTYADSVKGRFTISRDNAKNTVYLQMNSLKPEDTAVYYCARYHWYYRVSKSDSWGQGTQVTVSS,high polyreactivity
14,QVQLVESGAGLVQAGGSLRLSCAASGRTFDSNAMGWYRQAPGKEREFFASIRWTVTSTYYADSVKGRFTISRDNAKNTVYLQMNSLKPEDTAVYYCNAEDYYYVGRSDYWGQGTQVTVSS,low polyreactivity
15,QVQLVESGAGLVQAGGSLRLSCAASGRTFSGYAMGGYRQAPGKERELVAAISWRGGRTYYADSVKGRFTISRDNAKNTVYLLMYSLKPEDTAVYYCNTVGHVYYGEFDYWGQGTQVTVSS,high polyreactivity
16,QVQLVESGAGLVQAGGSLRLSCAASGRTFVYNAMGWYRQAPGKERELVAAISSDGASTYYADSVKGRFTISRDNAKNTVYLQMNRLNPEDTAVYYCAADFSYYSYEHYYWGQATQVTVSS,low polyreactivity
17,QVQLVESGAGLVQAGGSLRLSCAASGRTFWSNAMGWYRQAPGKEREFVAAIRSTVGSTYYADSVKGRFTISRDNAKNTVYLQMNSLNPEDTAVYYCYVSSGYYAYYYWGQGTQVTVSS,high polyreactivity
18,QVQLVESGAGLVQAGGSLRLSCAASGSILYINTMGWYRQAPGKERELVAAITSSGGSTYYADSVKGRFTISRDNAKNTVDLQMNSLKPEDTAVYYCAAVGYYGGYNYWGQGTQVTVSS,low polyreactivity
19,QVQLVESGAGLVQAGGSLRLSCAASGSIYVYAMGWSRQAPGKERELVAAISWSDGSTYYADSVKGRFTISRDNAKNTVYLQMNSLKPEDTAVYYCNAYGIQVDTYWQDRVEYDYWGQGTQVTVSS,high polyreactivity
20,QVQLVESGAGLVQAGGSLRLSCAASGSTFSYNAMGWYRQAPGKERELVAAISRRGDSTYYADSVKGRFTISRDNAKNTVYLQMNSLKTEDTAVYYCYAVTYYSHRYFSWYSRKGYDYWGQGTEVTVSS,high polyreactivity
21,QVQLVESGAGLVQAGGSLRLSCAASGSTLYRYAMGWYRQAPGKERELVAAISRRGDSTYYADSVKGRFTISRDNAKNTVYLQMNSLKPEDTAVYYCNTARSAGKYDYWGQGTQVTVSS,high polyreactivity
22,QVQLVESGAGLVQAGGSLRLSCAASGTIFRDYAMGWYRQAPGKERELVAAISSDGSTYYADSVKGRFTISRDNAKNTVYLEMNSLKPEDTAAYYCNARSYYPWEGFDYWGQGTQVTVSS,low polyreactivity

row,Sequence,polyreactivity (PSR sort gate)
1,QVQLVESGAGLVQAGGSLRLSCAASGYIFLRYAMGWSRQAPGKERELVAAIRGGSTNYADSVKGRFTISRDNAKNTVYLQMNSLKPEDTAVYYCAARGSKKQAYGYWGQGTQVTVSS,high polyreactivity
2,QVQLVESGAGLVQAGGSLRLSCAASRRIIYKYAMGWYSQAPGKERELVAAITSGGSTYYADSVKGRYTISRDNAKNTVDLQMNSLKPQDTAVYYCAASYARLSVWYDYWRQGTQVTVSS,high polyreactivity
3,QVQLVESGAGLVQAGGSLRLSCAATGLTFDYNAMGWYRKAPGKERELVAAITWSGGSTYYADSVKGRFTISRDNAKNTVYLQMNSLKTEDTAVYYCATESYGLDYYDEYNYWGQGTQVTVSS,low polyreactivity
4,QVQLVESGAGLVQAGGSLRLSCAPSGNIFSVYAMGWYRHAPGKARELVARITKTVGGTYYADSVKGRFTISRDNAKNTVYLQMNSLKPEDTAVYYCAARVWTGNGGSKGAYDYWGQGTQVTVSS,high polyreactivity
5,QVQLVESGAGLVQAGGSLRLSCAPSGSTFMTYAMGWYRQAPGKERELVAAIRWSGGGTYYADSVKGRFTISRDNAKNTVYLQMNSLKPEDTAVYFCAADHFNYTTGRDYWGQGTQVTVSS,low polyreactivity
6,QVQLVESGAGLVQAGGSLRLSCASSGSIFVSNAMGWYRKAPGKERELVAAISQSGGSTYYADSVKGRFTISRDNAKNTVYLLMNSLKPEDTAVYYCATPIRSGFRIYDYWGQGTQVTVSS,low polyreactivity
7,QVQLVESGAGLVQAGGSLRLSCASSGYIFDWYAMGWYRQAHGKERELGAAISGRGGSTYYADSVKGRFTISRDNSKNTVYLQMYSLKPEYTAVYYCNAALSPWGYNYWGQGTQVTVSS,high polyreactivity
8,QVQLVESGAGLVQAGGSLRLSCDASGSIFSWYAMGWYRQARGKERELVAAITWSGGSTYYADSVKGRFTISRDNAKNTVYLEMNSLKPEDTAVYYCNTYSYYAFDWGLGTQVTVSS,high polyreactivity
9,QVQLVESGAGLVQAGGSLRLTCAASGIIFPFYAMGWYRQAPGKERELVAGITSGGDTYYADSVKGRFTISRDNAKNTVYLQMNSLKPEDTAVSYCAAVYRRQYGYWGQGTQVTVSS,high polyreactivity
10,QVQLVESGAGLVQAGGSLRVSCAASGSIFSYYTMGWYRQPPGKERELVAAITYRGGSTYYADSVKGRFTISRDNAKNTVYLQRNSLKPEDTAVYYCAARTRNGAGYYWGQGTQVTVSS,high polyreactivity
11,QVQLVESGAGLVQARGSLRLSCAPSGRNFTYYAMGWYRQAPGTETELVAAISWSGGRTYYADSVKGRFTISRDNAKNTVYLKMNSLKPEDTAVYYCAADYYAFKFGRFDYWGQGTQVTVSS,high polyreactivity
12,QVQLVESGAGLVQEGGSLRLSCAASGRIFQTYTMGWYRQAPGKERELVAAISASGGRTYYADSVKGRFTISRDNAKNTVYLQMNSLKPEDTAVYYCAADIRGYDYWGQGTQVTVSS,high polyreactivity
13,QVQLVESGAVLVQAGGSIRLSCAASGSSFPYYAMGWYRQAPVKERELVATISQDGGRTYADSVKGRFTISRDNAKNTVYLQMNSLKPEDTAVDYCAADYSVNYDFGYWGQGTQVTVSS,low polyreactivity
14,QVQLVESGEGLVQAGGSLRLSCAASGITFGWYAMGWYRQAPGKERELVASISSSGSTNYADSVKGRFTISRDNAKNTVYLQMNSLKPEDTAVYYCNKDYLLSHYYIYVIEGDYWGQGTQVTVSS,low polyreactivity
15,QVQLVESGEGLVQAGGSLRLSCAASGRTFYANAMGWYRQAPGKERELVASITTSGGTYYADSVKGRFTISRDNAKNTVYLQMNSLKPEDTAVYYCAADVYRSIGYDYWGQGTQVTVSS,low polyreactivity
16,QVQLVESGEGLVQAGGSLRLSCAASGSIFTYNAMGWYRQAPGKERELVAAISRGGSTYYADSVKGRFSISRDNAKNTVNLQMNSLIPEDTAVYYCNARRYRHDGYWGQGTQVTVSS,high polyreactivity
17,QVQLVESGGAIVQAGGSHRLRCAASGSILGRYAMAWYRQAPGKERELVAAISRRGGSTTYADSVKGRFTISRDNAKNTVYFQMNSLKPEDTALYYCNTVSSWGRNYQDEYDYWGQGTQVSVSS,high polyreactivity
18,QVQLVESGGALDQAGGSLRVSCAASGSIFPIYTMGWYRQAPGKERELVAGIRYRGGNTYYADSVKGRFTISRDNAKNTVYLQMNSLNPEDTAVYYCAARAYYRYLYKLNYWGQGTQVTVSS,high polyreactivity
19,QVQLVESGGALLQAGGSLRLSCAASGRIFYHYAMGWYRQAPGKESELVAASTWSGVSTYYADSVKGRFTISRDNAKNTVDLQMNRLIPADTAVYYCATSSPYGVRRYSRGSWGQGTQVTVSS,high polyreactivity
20,QVQLVESGGALVQAGCSLRLSCAASGRTFYRNAMGWYRQAPGKERELVARISRNGGTTYYADSVKGRFTISRDNAKNTVYLQMNSLIPEYTAVYYCAAPIYDGARGDYWGQGTQVTVCS,high polyreactivity
21,QVQLVESGGALVQAGGRLRLSCAASGSTFYTYAMGWYRHAPGKEREIVAAISWSDDSTYYADSVKGRFTISRDNAKNTVYLQMTSLKPEDTAVYYCAAEWGQRGGGGYYYWGQGTQVTVSS,low polyreactivity
